B1: Canine picodicistrovirus strain 209 (nucleic acid)
DNA: CGCTCTTTATACAAATCTGTCAACCCTTTGTATAACTCTAAGCCGAACAATTATAGCTAGGCTTTTTATTATATAACATTAATTAGGCATTAGCGTTGTCGCCAATCTCTTGGTAATCCTAAGGATACCTTTCCTGTTGACTAAGATGAAGCGCCTTCGGTTACCGATGCCCGGTGTCCACGAAGCCATCGTGGTCGGCCGCGTCCCCCACCTCTCCCAACTTGGACTCCATGTTTTCAGTAGGTGTAATGATTAGTATTATTGATTCTGCTCGTTCAATGTGTTTATCTTCACGATCTGGGACCCAACACATGCTTCACTCATGTTTAAATGTTGGTTCCCTCATTTTGAAGACACCCAAACCATAGAGTGCGAGAATGAGGATTTCTACTTCCATTCTGGTAACAGAAATGAATTCCTGCGTGTGTCTCGTAAATGGAATCTTTAAGAACTTCAGATAAATCGAACAATACACTAATACAAGTTGTTTTCTACCAACATGTTCAATGCGGCTAATCTGACCGTGGAGCTGTGAAGCGCTCAAACCCGAGTGTTGTATACAGTCGTAATGCGTAAGTCCATGAGGAACCGACTACTGTTACCTCTGTTGGTGTGTTTCTCCTTTCCTCTCTTTTATTATTATTTGTTATTGCAAATACTACAACTTTGATCAAC
B2: Bovine nidovirus TCH5 (nucleic acid, listed as Bovine nidovirus)
DNA: CACCAATAGATTAGTCAAGCTGTCTATAGGCATAAACTAACCCCCAACCCCATTACCCCGGGGCCAGGTGGGCCGCCGCCTTCGGGCAAACCCGTGCGCTGGTATAATCAAGGTTCACAGCCAGATTCACTGCCGGTTAGCTAGTGGGGCGGTAGCCTGGCAAAACCCGAAGAGGTTGGAAAGGGAACTTCAGGGTAGTTTATCCTAGGCTAGCGTAGCTACAGTTCGGTCAAGATAACCGTCCTGGTGCTAGGGCTAGTAGAGACAGTGGTAACTTGGACAAGGGTCCAGGGCCACTTTAGGGAATACCCTACGGAAGGCTAGGTCCGTAAGGAAGACCCCCGCAGTTGTCCGCGGTTGAGCAGAGCTCCTGCGTAGACAAAAGGCAAAAAGTGGATTACATTCGCCTGCAGGAAAAGGCAAACGTCGTTGGAGTCGGAGCTAAAGTACTGGACGATTGATACCACGCCTGCTGCGGTAGATAAA
B3: Cripavirus (nucleic acid, listed as Cripavirus sp.)
DNA: GCAAAATCGGTAGTACGTTAAACGTACGACCACCGATGAGACTGAAATGACACTAGTTGAGATTATTTCAATATCCTAGTGTTATAAAGTCAATATTTGTTGGTTGATCGTTTCGTCAATCGATGGCGCTGACAGCCGGAAAGACGGCAATAATAAAAACCAAGATTTAGTTTTTAAGTTTTGATTGAATTGCAAAAGCTATCTTGAATAGACAATCAAAATATTAAGTAAAGCAAAAGCTTCTTAAAGAAGACAATATTTAATTAGTTAGTAACCAAACCTCATCGTGCCCCTAAGGGTTAACCGGTTACGTAAAAGCGTAGAGGTATTAAGGTCACTGCGGAGACCTAAAATCCGCAATTTTATGTTTTGTAATGTTTTAGTTATAGACTTAGATGTAACTATAAGAGTTTATAAATACTTGTTTCAAGATTTATAGACAAGATCTGATCCTATGGATTTTAGATAACCTTCATGTTAGTGGATAGTGTGTGTACCTATCTAAACGCATAAGGCTCTTATTTCATATTTAAAGTAGGACTATGTATTACGGCGCATCTAACGGTAACGTTAGTCAAGACCGGAGAATCTCGGAATGAATTTTAGTAATTCCCAAATTTATA
B4: Botrytis cinerea mitovirus 4 RdRp (nucleic acid, listed as Mitovirus sp.)
DNA: GCCCCGCCGACCTTCCTATTTATTTCTAAATAGGAAGGTCCCGACTAGTCGGATAATTCGGTTTAACGAATTATGGTTAGATCTATTAAAGTTAAAATAGATTGAATTTCTTTCTCATCCTCCTTATTCCTATACTTTGGGAGTAAATGACAAATGTCTATCCTCAAACCGAAATGGCTTAAGTGATGAATTTGAAAGAAAGGTAGGTTTTAAGAATATAAGGCATCAATATATTATACCCTTGAATGTTAAGTGACCACGGCGTGACGATTAGGGCTATCTTAGGATAGACAGCCATCTAACGCGACAGCAGTGGAAATCAGCTTAGCATCTCAAGATCATGTATAATATATACATAACCTTACAATTATAAAACCAAACCAAAACACACTATAATTTTATATAAATTATAGAAGTATCGGACCTGGACGGTACCTACTATTAACTGATAGTAGCCAAATGCAGGAAGCTC
B5: Human coxsackievirus A2 (nucleic acid)
DNA: ACCTTTGTGCGCCTGTTTTATATCCCCACCCCGAGTAAACGTTAGAAGTTACGCAACCCCGATCAATAGTAGGTGTAGCACTCCAGCTGCATCGAGATCAAGCACTTCTGTCTCCCCGGACCGAGTATCAATAGACTGCTAACGCGGTTGAAGGAGAAAACGTTCGTTACCCGGCCAATTACTTCGAGAAGCCCAGTAGTGCCGTGAAAGTTGCGGAGTGTTTCGCTCAGCACTTCCCCCGTGTAGATCAGGCTGATGAGTCACCGCGATCCCCACAGGTGACTGTGGCGGTGGCTGCGTTGGCGGCCTGCCTATGGGGCAACCCATAGGACGCTCTAATACAGACATGGTGCGAAGAGCCTATTGAGCTAATTGGTAGTCCTCCGGCCCCTGAATGCGGCTAATCCTAACTGCGGAGCACATGCCCTCAAACCAGGGGGTGGTGTGTCGTAACGGGTAACTCTGCAGCGGAACCGACTACTTTGGGTGTCCGTGTTTCTTTTTATTCTTATAATGGCTGCTTATGGTGACAATTAAAGAATTGTTACCATATAGCTATTGGATTGGCCATCCGGTGACTAACAAATCGCTCATATACCAGTTTGTTGGTTTTGTTCCCTTATCACATACAGCTCATAACACCCTCTTATATTTACTACAATTGAATAGCAAGAA
B6: Camel alphacoronavirus (nucleic acid, listed as Alphacoronavirus sp.)
DNA: CTTAAGTGTCTTATCTATCTATAGATAGAAAAGTCGCTTTTTAGACTTTGTGTCTACTCTTCTCAACTAAACGAAATTTTTGCTACGGCCGGCATCTCTGATGCTGGAGTCGTGGCGTAATTGAAATTTCATTTGGGTTGCAACAGTTTGGAAATAAGTGCTGTGCGTCCTAGTCTAAGGGTTCTGTGTTCTGTCACGGGATTCCATTCTACAAACGCCTTACTCGAGGTTCTGTCTCGTGTTTGTGTGGAAGCAAAGTTCTGTCTTTGTGGAAACCAGTAACTGTTCCTA
B7: Canine kobuvirus (nucleic acid, listed as Kobuvirus sp.)
DNA: TTTAAGTGTTGTGCCCAATCTCTTGACTCCTGCTGGAACCACCGACCAGTAGTGTCCAAAATGCCAGGTGGAAAATCCTCCCTTCCCCTCTGGGCTTCATGCCCGGCATCCTCCCCCCAGCCTGACGTGCCACAGGCTGTGCAAAGACCCCGCGAAAGCTGCCAAAAGTGGCAATTGTGGGTCCCCCCTTTGTCAAGGCGTCGAGTCTTTCTCCCTTAAGGCTAGTCCTGTCAGTGAACTCTGTCGGGCAACTAGTGACGCCACTGCATGCCTCCGACCTCGGCCGCGGAGTGCTGCCCCCCAAGTCATGCCCCTGACCACAAGTTGTGCTGTCTGGCAAACATTGTCTGTGAGAATGTTCCGCTGTGGCTGCCAAGCCTGGTAACAGGCTGCCCCAGTGTGCGTAATTCTCATCCAGACTTCGGTCTGGCAACTTGCTGTTAAGACATGGCGTAAGGGGCGTGTGCCAACGCCCTGGAACGAGTGTCCACTCTAATACCCCGAGGAATGCTACGCAGGTACCCCTGGCTCGCCAGGGATCTGAGCGTAGGCTAATTGTCTAAGGGTATTTTCATTTCCCACCCTCTTCTTCTTGTTCATA
B8: Bovine hepacivirus (nucleic acid, listed as Hepacivirus sp.)
DNA: CCATCGACACTCCAGGCTCACGGATTAAGTTAGGTTCCGCCGAAGCGGGCTAACCAGGCCCCTAGTAGGAGGCGCCTATCCCGTGAGCCCTTTCCCCACGGATTGAGTGGAGCTGGAGCTGGGAAGGACCGAGTACGGTCCAATCGAGAAGAACCCTGATGAACATTCCAGGCCTCTTCGGTAGATTTGGATATATCCACCAGTGAAGGCGGGGTCGTGGGTACAGGCCCCCTAGTCCACACAGCCTGATAGGGTCCTGCCGCAGGATCCGTGGGTGCGGCTGTACATGTACC
B9: Bovine picornavirus isolate TCH6 (nucleic acid)
DNA: TTGGATCTGAGCAGGGGCCCCCTTTGGGTTGCTTTACAACTCAACTGGGGGTTAAAAAACGTCTAACCCGACACGCCAGAGGGATCTGGTTTCCTTTTATTTCTTTTACTCACCACTGGATGCAGATTGACGATAAACGTTGTTGTTTGTGACTATTGACTTGATCTGCTTCTACGGGTTTACTTTCACTGTTATACTTCTTGCTTTGTTTGGTGTTCACTGTACTTTGTCTCCTTCTACATTTCACA
B10: Rafivirus WHWGGF74766 (nucleic acid, listed as Rafivirus sp.)
DNA: TGCGAATTTATTCGCACAGTCTCTTTTCCCCCATCTTGTGTGTGTGATGGGGTAAGCCGCAGAGTAATACCTACTCTGCTGCAAACACACTCACTCTTTTCTATCTACTTTATATCATGTAATAATAAGTAGGGAACATATTCAATTCATATTGTTCATCTCACTGAACCCGCATGAAGGACTGCATTGCATATCCTGGACGAAGTGACGTGGAATATTTGGACATTTATGGATTGGACACCATTACGCTTTGTGCCTCTACGGAGATGTAACCATAATCTTAAGTAGTAGTACCCCAGCACAAGAGGATAAAGTGGCATACACGACAACGGGTGTTGCTCGCACCTTAGTAATGTGGATGTTCACCCTTGGAGCGTGCTGAAACTCTGTGGGTAAAGACACACATTAGTACAAATGTGGGGGAACTCACTGAAAGGGCATGTCCCGTGTACTGGTGTGCCGGAAAGTGGGGGTCGCTTTCTGGAGAACTTAGTAGTTCTTGTTATTGGGTGATAGCCTTGCGGCGGATCAACTCACAGTTTTAATCCGTTGTTTTGCAT
B11: Canine distemper virus (nucleic acid, listed as Canine morbillivirus)
DNA: ACCAGACAAAGTTGGCTAAGGATAGTTAAATTATTGAATATTTTATTAAAAACTTAGGGTCAATGATCCTACCTTAAAGAACAAGGCTAGGGTTCAGACCTACCAAT
modifications: chemistry not fully specified
B12: Botrytis cinerea mitovirus 2 RdRp (nucleic acid, listed as Mitovirus sp.)
DNA: GGAACTTTTCAGTTCCAGAAGTGGCTTTATTAAGCCTTCAAAGTTTACACTTTGAACCTGCGATTAATTCCCCATAGTGACTCTTGTTACTGTGAATTAGGAATAGTTGTAGTTCAACTTCTAATGAGGTGAACAATATAATAACTCATCTTATTAACCCTATACGTAGACAATTGTCCAAAGAGACAGTTGGAATTCTGCCAATCTGGAATGTTTGGTACGCGTAGAAGATAATAAGAGACCCTCTATTCCCCTGCCTCATGACTAAGTCATGGCCCGGGGTGTAATAGAGATACTTTTATATATTATACAATC

This data set deals with HEK293 cells. In kind it is cell-based, human. The following applies: luminescence from secreted Gluc in supernatant 24 hours after transfection of HEK293 cells; circular RNA encoding Gluc with the named IRES (UTR truncated to 675 nt).
B1 returned an Expression of 2.79E+06.
For B2 the value was 1.17E+05; for B3, 1.95E+05.
For the molecule B4, the Expression came to 9.68E+04.
Next, B5: 7.75E+07; B6: 2.48E+05; B7: 1.48E+08.
For the molecule B8, the Expression came out at 1.89E+05.
Next, B9: 1.21E+05; B10: 4.53E+06; B11: 3.02E+05.
For B12 the value was 8.73E+04.

Source of the values: patent publication US20230226096A1 (Orna Therapeutics, Inc., priority 2020, published 2023).
